Our source for the binding result and Kd values is publication PMC7279889, “FMRP promotes RNA localization to neuronal projections through interactions between its RGG domain and G-quadruplex RNA sequences”.

The target of data set [1] is FMRP KH domains (two KH domains) (Mus musculus, UniProt P35922 222-315). The data set is described as follows: fluorescence polarization; binding never detected; method and salt implied; FP: 10 mM Tris-HCl (pH not stated), 150 mM KCl or LiCl, 5% glycerol, 10 nM RNA, protein 2 nM-1 uM, 5 min at 25 C, read at 26-27 C. The following applies: protein: recombinant; tags: GST-SBP (N-terminal, pGEX6); label: 3' 6-FAM; G4 intramolecular (folded in KCl). (In fluorescence polarisation assays a small probe gives low polarisation when free and higher when bound to something large.)

In data set [2] the target is FMRP RGG domain (Mus musculus, UniProt P35922 478-614). In words: fluorescence polarization; 150 mM KCl; FP: 10 mM Tris-HCl (pH not stated), 150 mM KCl or LiCl, 5% glycerol, 10 nM RNA, protein 2 nM-1 uM, 5 min at 25 C, read at 26-27 C. The conditions noted are these: protein: recombinant; tags: GST-SBP (N-terminal, pGEX6); label: 3' 6-FAM; G4 intramolecular (folded in KCl).

B1: rG4 (structured_RNA)
RNA: GGGAGGGAGGGAGGGUA
Broadly, the Kd is the free concentration of one partner at which half of the binding sites on the other are occupied at equilibrium, for simple one-to-one binding. With B1, the binding result in data set [1] is “no binding”. In addition, the dissociation constant Kd in data set [2] is about 30 nM.
